In US20260234258A1 (REPERTOIRE IMMUNE MEDICINES, published 2026):

Columns and labels:
[1] = molecular target: T1, mouse CD8 (on CD8 T cells of mouse splenocytes) (mouse, UniProt P01731 28-247); test: cell-based or functional assay
[2] = molecular target: T1, mouse CD8 (on CD8 T cells of mouse …); test: flow cytometry on mouse splenocytes, CD8 T cells; IL2 loading detected with anti-IL2; median fluorescence intensity
Protocol: (§1) Anti-mouse CD8-human IL2 molecules were evaluated for their ability to specifically bind and load IL2 on CD8 T cells. Briefly, 1×10⁵ mouse splenocytes were incubated with indicated CD8-IL2 (human FC receptor) molecules from one of the concentrations ranging from 0.05 pM to 500 nM. Anti-mouse CD8 antibody was used as control. Following one hour incubation with molecules, splenocytes were washed twice with RPMI complete medium and once with PBS. The washed splenocytes were stained with anti-TL2 (MQ1-17H12), anti-human kappa (MHK-49) and lineage surface makers CD4(RM4-4), NK1.1(PK136) and CD19(6D5) for 20 minutes, after which the cells were washed and analyzed using flow cytometer. Mean fluorescence intensity data was analyzed using four parameter nonlinear regression method to calculated binding affinity in GraphPad prism.

[3] = molecular target: T1, mouse CD8 (on CD8 T cells of mouse …); test: flow cytometry on mouse splenocytes, gated cell types; IL2 loading detected with anti-IL2; median fluorescence intensity
Protocol: as §1

[4] = molecular target: T1, mouse CD8 (on CD8 T cells of mouse …); test: flow cytometry on mouse splenocytes, CD8 T cells; bound molecule detected with anti-human kappa; median fluorescence intensity
Protocol: as §1

[5] = molecular target: T2, human CD8 (on CD8 T cells of human PBMC) (human, UniProt P01732 22-235); test: cell-based or functional assay
[6] = molecular target: T2, human CD8 (on CD8 T cells of human PBMC); test: cell-based or functional assay; remark: listed apart in the source
[7] = molecular target: T2, human CD8 (on CD8 T cells of human PBMC); test: flow cytometry on human PBMC, gated cell types; IL2 loading detected with anti-IL2; MFI
Protocol: (§2) Anti-human CD8-human IL2 molecules were evaluated for their ability to specifically bind and load IL2 on CD8 T cells. Briefly, […] human PBMC were co-cultured with indicated CD8-IL2 (human FC receptor) molecules from one of the concentrations ranging from 0.05 pM to 0.4 nM. Following one hour incubation with molecules, PBMC were washed twice with RPMI complete medium and washed once with PBS. The washed cells were stained with anti-IL2 (MQ1-17H12), anti-human kappa (MHK-49) and lineage surface markers CD3(UCHT1), CD4(SK3) and NK(HCD56) for 20 minutes, after which the cells were washed and analyzed using a flow cytometer. The binding affinity was quantified and represented as mean fluorescence intensity (MFI).

[8] = molecular target: T2, human CD8 (on CD8 T cells of human PBMC); test: flow cytometry on human PBMC, CD8 T cells; bound molecule detected with anti-human kappa; MFI
Protocol: as §2

T2 sequence (P01732 22-235 limits assumed): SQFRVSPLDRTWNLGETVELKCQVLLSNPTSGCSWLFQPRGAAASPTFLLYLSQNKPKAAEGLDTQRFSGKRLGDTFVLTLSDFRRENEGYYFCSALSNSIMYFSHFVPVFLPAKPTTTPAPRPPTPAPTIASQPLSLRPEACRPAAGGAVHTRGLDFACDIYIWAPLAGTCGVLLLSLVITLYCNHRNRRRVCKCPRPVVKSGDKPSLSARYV
T1 sequence (P01731 28-247): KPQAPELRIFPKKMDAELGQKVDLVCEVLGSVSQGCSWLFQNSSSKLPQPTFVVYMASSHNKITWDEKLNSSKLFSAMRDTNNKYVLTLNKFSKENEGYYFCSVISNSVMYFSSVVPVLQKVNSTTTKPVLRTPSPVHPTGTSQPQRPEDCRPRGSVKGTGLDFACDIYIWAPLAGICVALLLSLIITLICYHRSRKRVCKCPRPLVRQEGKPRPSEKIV

Binder	Percentage of CD8 T Cell expansion at 32 pm [1] [%]	Percentage of CD8 T Cell expansion at 160 pm [1] [%]	EC50 (read off the curve) [2] [nM]	EC50 (read off the curve) [3] [nM]	EC50 (read off the curve) [4] [nM]	EC50 pSTAT5 Activation, CD8+ T cells [5] [pM]	EC50 of Proliferation (percentage Ki67), CD8+ T cells [6] [nM]	EC50 (read off the curve) [7] [nM]	EC50 (read off the curve) [8] [nM]
mCD8 Fab Fc IL2 (LC) (YTS105) (antibody, human IgG1, kappa, L234A L235A, N297A, One-armed Fab-Fc (clone YTS105) with human IL-2 on the C-terminus of the light chain; also called mCD8 Fc-IL2(LC); CD8Fc-IL2) heavy: EVQLKESGPGLVQPSQTLSLTCTVSGFSLTSNSVHWVRQPPGKGLEWMGGIWGDGDTDYNSALKSRLSISRDTSKNQVFLKMNSLQTDDTAIYFCTPLIGSWYFDFWGPGTMVTASSASTKGPSVFPLAPSSKSTSGGTAALGCLVKDYFPEPVTVSWNSGALTSGVHTFPAVLQSSGLYSLSSVVTVPSSSLGTQTYICNVNHKPSNTKVDKKVEPKSCDKTHTCPPCPAPEAAGGPSVFLFPPKPKDTLMISRTPEVTCVVVDVSHEDPEVKFNWYVDGVEVHNAKTKPREEQYASTYRVVSVLTVLHQDWLNGKEYKCKVSNKALGAPIEKTISKAKGQPREPQVYTLPPSRDELTKNQVSLWCLVKGFYPSDIAVEWESNGQPENNYKTTPPVLDSDGSFFLYSKLTVDKSRWQQGNVFSCSVMHEALHNHYTQKSLSLSPGK DKTHTCPPCPAPEAAGGPSVFLFPPKPKDTLMISRTPEVTCVVVDVSHEDPEVKFNWYVDGVEVHNAKTKPREEQYASTYRVVSVLTVLHQDWLNGKEYKCKVSNKALGAPIEKTISKAKGQPREPQVYTLPPSRDELTKNQVSLSCAVKGFYPSDIAVEWESNGQPENNYKTTPPVLDSDGSFFLVSKLTVDKSRWQQGNVFSCSVMHEALHNHYTQKSLSLSPGK light: not shown	56.1	60.6	~0.8	~0.4	~0.7				
hCD8 IgG IL2 1x (HC) (VH6/VK3) (antibody, Humanized 02A01 (VH6/VK3) anti-human CD8 IgG, knob-in-hole, one human IL-2 on the C-terminus of the knob heavy chain; also called hCD8 IgG IL2 1×(HC)) heavy 1: not shown heavy 2: EVQLVQSGAEVKKPGATVKISCKASGYTFTDFTMHWVQQAPGKGLEWIGLVNPNNGGNIYAEKFQGRVTLTVDTSTSTAYMELSSLRSEDTAVYYCGRVPLYTSHGMDYWGQGTLVTVSSASTKGPSVFPLAPSSKSTSGGTAALGCLVKDYFPEPVTVSWNSGALTSGVHTFPAVLQSSGLYSLSSVVTVPSSSLGTQTYICNVNHKPSNTKVDKKVEPKSCDKTHTCPPCPAPEAAGGPSVFLFPPKPKDTLMISRTPEVTCVVVDVSHEDPEVKFNWYVDGVEVHNAKTKPREEQYASTYRVVSVLTVLHQDWLNGKEYKCKVSNKALGAPIEKTISKAKGQPREPQVYTLPPSRDELTKNQVSLSCAVKGFYPSDIAVEWESNGQPENNYKTTPPVLDSDGSFFLVSKLTVDKSRWQQGNVFSCSVMHEALHNHYTQKSLSLSPGK light: EIVLTQSPATLSLSPGERATISCRASESVDSYDINSMHWYQQKPGQAPRLLIYRASHLQSGIPARFSGSGSRTDFTLTISSLEPEDFATYYCQQSNEDPLTFGQGTKLEIKRTVAAPSVFIFPPSDEQLKSGTASVVCLLNNFYPREAKVQWKVDNALQSGNSQESVTEQDSKDSTYSLSSTLTLSKADYEKHKVYACEVTHQGLSSPVTKSFNRGEC						0.448	0.0689	~0.03	~0.03
mCD8 Fab IL2 (LC) (YTS105) (Fab, Anti-mouse CD8 Fab (clone YTS105) with human IL-2 fused to the C-terminus of the light chain) heavy: EVQLKESGPGLVQPSQTLSLTCTVSGFSLTSNSVHWVRQPPGKGLEWMGGIWGDGDTDYNSALKSRLSISRDTSKNQVFLKMNSLQTDDTAIYFCTPLIGSWYFDFWGPGTMVTASSASTKGPSVFPLAPSSKSTSGGTAALGCLVKDYFPEPVTVSWNSGALTSGVHTFPAVLQSSGLYSLSSVVTVPSSSLGTQTYICNVNHKPSNTKVDKKVEPKSC light: not shown	56.4	59.7	~0.6	~0.3	~0.5				

Further lines, results first:

Percentage of CD8 T Cell expansion at 32 pm [1] [%]	Percentage of CD8 T Cell expansion at 160 pm [1] [%]	EC50 (read off the curve) [2] [nM]	EC50 (read off the curve) [3] [nM]	EC50 (read off the curve) [4] [nM]	EC50 pSTAT5 Activation, CD8+ T cells [5] [pM]	EC50 of Proliferation (percentage Ki67), CD8+ T cells [6] [nM]	EC50 (read off the curve) [7] [nM]	EC50 (read off the curve) [8] [nM]	Binder
46.5	63.2	~0.05	~0.05	~0.04					mCD8 IgG IL2 (HC) (YTS105) (antibody, Anti-mouse CD8 IgG (clone YTS105) with human IL-2 on the C-terminus of each heavy chain) heavy: not shown light: DIVMTQSPSSLAVSAGERVTLNCKASQNVRNNIAWYQQKPGQSPKLLIYYASYRYTGVPDRFTGDGFGTDFTLAINSVQADDAAFYYCQRIYNSPYTFGAGTKLELIRTVAAPSVFIFPPSDEQLKSGTASVVCLLNNFYPREAKVQWKVDNALQSGNSQESVTEQDSKDSTYSLSSTLTLSKADYEKHKVYACEVTHQGLSSPVTKSFNRGEC
				~0.04					mCD8IgG (anti-mouse CD8 antibody control, clone YTS105) (antibody, not shown: a dimerising Fc or GST, Control without IL-2) heavy: EVQLKESGPGLVQPSQTLSLTCTVSGFSLTSNSVHWVRQPPGKGLEWMGGIWGDGDTDYNSALKSRLSISRDTSKNQVFLKMNSLQTDDTAIYFCTPLIGSWYFDFWGPGTMVTASSASTKGPSVFPLAPSSKSTSGGTAALGCLVKDYFPEPVTVSWNSGALTSGVHTFPAVLQSSGLYSLSSVVTVPSSSLGTQTYICNVNHKPSNTKVDKKVEPKSC light: DIVMTQSPSSLAVSAGERVTLNCKASQNVRNNIAWYQQKPGQSPKLLIYYASYRYTGVPDRFTGDGFGTDFTLAINSVQADDAAFYYCQRIYNSPYTFGAGTKLELIRTVAAPSVFIFPPSDEQLKSGTASVVCLLNNFYPREAKVQWKVDNALQSGNSQESVTEQDSKDSTYSLSSTLTLSKADYEKHKVYACEVTHQGLSSPVTKSFNRGEC
